# Reference: patent US20260041732A1, “USE OF APELIN FOR THE TREATMENT OF LYMPHEDEMA” (INSTITUT NATIONAL DE LA SANTE ET DE LA RECHERCHE MEDICALE, priority 2022, published 2026)
# Tested on: Human dermal lymphatic endothelial cells (HDLEC)
# Assay: Bulk RNA-sequencing, differential gene expression and GO analysis
# Type: cell-based
# Procedure: Human dermal lymphatic endothelial cells (HDLEC) (single donor, juvenile foreskin, Promocell, C-12216, >95% of the cells are CD31 positive and podoplanin positive) were cultured in Endothelial Cell Media MV2 (EGM-MV2, Promocell, C-22121). NIH3T3 were cultured in Dulbecco's modified Eagle's medium (DMEM, Sigma, D6429) supplemented with 10% fetal bovine serum (FBS, Gibco, 10270-06) and 1% penicillin-streptomycin. Endothelial cells were used at passage 3-6 and human fibroblasts were used at passage 4-7. Cells were cultured at 37° C. in a 5% CO2 incubator. Culture medium was changed 3 times a week, and the cells were passaged ⅓. For collecting conditioned media, NIH3T3 were grown in 10 cm dishes, after reaching confluence, medium was removed and the cells were washed once with PBS. NIH3T3 were cultured overnight in 5 mL reduced serum medium optiMEM (Gibco), the medium was then collected and used for experiments. HDLEC were treated with 50% conditioned media/50% MV2-05% FBS. Total RNA from HDLEC transduced or not with Apelin Lentivector were prepared using the RNeasy mini kit (Qiagen 74106). Total RNA were then subjected to ribosomal-RNA depleted RNA sequencing (RNA-Seq) protocol performed by Genewiz company using Illumina HiSeq, PE 2×150 configuration. Sequence reads were trimmed to remove possible adapter sequences and nucleotides with poor quality using Trimmomatic v.0.36. The trimmed reads were mapped to the Homo sapiens GRCh38 reference genome available on ENSEMBL using the STAR aligner v.2.5.2b. The STAR aligner is a splice aligner that detects splice junctions and incorporates them to help align the entire read sequences. BAM files were generated as a result of this step. Unique gene hit counts were calculated by using feature Counts from the Subread package v.1.5.2. The hit counts were summarized and reported using the gene_id feature in annotation file. Only unique reads that fell within exon regions were counted. Distribution of read counts in libraries were examined before and after normalization. The original read counts were normalized to adjust for various factors such as variations of sequencing yield between samples. These normalized read counts were used to accurately determine differentially expressed genes. Data quality assessments were performed to detect any samples that are not representative of their group, and thus, may affect the quality of the analysis. The overall similarity among samples were assessed by the Euclidean distance between samples. This method was used to examine which samples are similar/different to each other and if they fit to the expectation from the experiment design. The shorter the distance, the more closely related the samples are. Samples were then clustered by using the distance. A principal component analysis was also performed to reveal the similarity between samples based on the distance matrix. After extraction of gene hit counts, the gene hit counts table was used for downstream differential expression analysis. Using DESeq2, a comparison of gene expression between Apelin transduced LEC against non-transduced LEC was performed. The Wald test was used to generate p-values and log2 fold changes. […] The global transcriptional change across the two groups compared was visualized by a volcano plot. Each data point in the volcano plot represents a gene. The log2 fold change of each gene is represented on the x-axis and the log10 of its adjusted p-value is on the y-axis.
molecule,measurement,setting,value
"APELIN: bioactive peptide apelin, endogenous ligand of APJ; applied to HDLEC as conditioned media from LV-Apelin transduced NIH3T3 or by transduction (protein, listed as Homo sapiens) MNLRLCVQALLLLWLSLTAVCGGSLMPLPDGNGLEDGNVRHLVQPRGSRNGPGPWQGGRRKFRRQRPRLSHKGPMPF",GO analysis of down regulated genes,,no biological process was significantly affected
same,"GO analysis for biological process, upregulated genes",FDR<0.05,enriched (FDR<0.05) for terms related to extracellular matrix (ECM) remodelling and signalisation
same,number of genes up regulated by both apelin and VEGF-C,"HDLEC, conditioned media",43 genes
same,number of genes up regulated by both apelin and apelin+VEGF-C,"HDLEC, conditioned media",31 genes
same,"number of genes up regulated by both apelin, VEGF-C and apelin+VEGF-C","HDLEC, conditioned media",19 genes
same,expression of E2F8,LEC,stimulated
same,"expression of genes related to VEGFC maturation (ADAMTS2, CCBE1)",compared to WT,improved
same,number of genes deregulated,"conditioned media vs control NIH3T3 media, p.adj<0.05 and Log2 fold change<-0.5 or >0.5",217 genes
same,number of genes down regulated,"p.adj<0.05, Log2 fold change <-0.5",123 genes
same,number of genes up regulated,"p.adj<0.05, Log2 fold change >0.5",94 genes
